*1 amine or outer side, *2 acyl side, *3 side chain or, on linkers, in order; H or OH if unused. Where a SMILES comes first, the peptide text is derived from it. Where no end group is shown, it is not given here. Side-chain parts run from the residue outwards. [ ]: non-standard residue; d: D form. The star is where a group is joined. X1 = O=C(O)CCCCCCCCCCCCCCCCCCC(=O)NCC1CCC(C(=O)*)CC1; C20 diacid = O=C(O)CCCCCCCCCCCCCCCCCCC(=O)*; γGlu = O=C(O)[C@H](CCC(=O)[*:2])N[*:1]; εLys = N[C@@H](CCCCN[*:1])C(=O)[*:2]; AEEA = NCCOCCOCC(=O)O; Aib = CC(C)(N)C(=O)O
What was measured:
[1] = molecular target: T1, human GLP-1 receptor (Homo sapiens, UniProt P43220); assay: In vitro functional potency (CRE luciferase; whole cells), human GLP-1R; type: cell-based; conditions: BHK CRE luc2P hGLP-1R whole cells; Table 2; read-out: hGLP-1R CRE Luc EC50
T1 construct: expressed in transfected cells; host or cells: BHK cells (parent line BHKTS13) containing CRE luciferase
Experimental: The purpose of this example is to test the functional activity, or potency, of the compounds in vitro at the human and mouse GLP-1, GIP, and Gcg receptors. The in vitro functional potency is the measure of target receptor activation in a whole cell assay.
In vitro functional potency was determined by measuring the response of the target receptor in a reporter gene assay in individual cell lines. The assay was performed in stably transfected BHK cell lines that expresses one of the following G-protein coupled receptors: human GLP-1 receptor, human GIP receptor, human Gcg receptor, mouse GLP-1 receptor, mouse GIP receptor, or mouse Gcg receptor; and where each cell line contains the DNA for the cAMP response element (CRE) coupled to a promoter and the gene for firefly luciferase (CRE luciferase). When the respective receptor is activated, it results in the production of cAMP, which in turn results in expression of the luciferase protein. When assay incubation is completed, luciferase substrate (luciferin) is added resulting in the enzymatic conversion of luciferin to oxyluciferin and producing bioluminescence. The luminescence is measured as the readout for the assay.
The cells lines used in these assays were BHK cells with BHKTS13 as a parent cell line. The cell lines were derived from a clone containing the CRE luciferase element and were established by further transfection with the respective receptor to obtain the relevant cell line.
The cells were cultured at 37° C. with 5% CO2 in Cell Culture Medium. They were aliquoted and stored in liquid nitrogen. The cells were kept in continuous culture and were seeded out the day before each assay.
GLP-1R and GcgR Cell Culture Medium consisted of DMEM medium with 10% FBS, 500 µg/mL G418, and 300 µg/mL hygromycin. GIPR Cell Culture Medium consisted of DMEM medium with 10% FBS, 400 µg/mL G418, and 300 µg/mL hygromycin. Assay Buffer consisted of DMEM w/o phenol red, 10 mM Hepes, 1× Glutamax, 1% ovalbumin, and 0.1% Pluronic F-68.
• 1) Cells were plated at 5000 cells/well and incubated overnight in the assay plate. • 2) Cells were washed once in DPBS. • 3) Stocks of the test compounds and reference compounds in concentrations ranging from 100-300 pM were diluted 1:150 in Assay Buffer.
The data from the microtiter plate reader was first regressed in an Excel in order to calculate the x-axis, log scale concentrations based on the individual test compound's stock concentration and the dilutions of the assay. […] The software performs a non-linear regression (log(agonist) vs response). A minimum of two replicates was measured for each sample. The reported values are averages of the replicates.

[2] = molecular target: human glucagon-like peptide 1 receptor (human, UniProt P43220 24-463); assay: cell-based or functional assay
[3] = molecular target: T2, human glucose-dependent insulinotropic polypeptide receptor (human, UniProt P48546 22-466); assay: cell-based or functional assay
T2 sequence (looked up): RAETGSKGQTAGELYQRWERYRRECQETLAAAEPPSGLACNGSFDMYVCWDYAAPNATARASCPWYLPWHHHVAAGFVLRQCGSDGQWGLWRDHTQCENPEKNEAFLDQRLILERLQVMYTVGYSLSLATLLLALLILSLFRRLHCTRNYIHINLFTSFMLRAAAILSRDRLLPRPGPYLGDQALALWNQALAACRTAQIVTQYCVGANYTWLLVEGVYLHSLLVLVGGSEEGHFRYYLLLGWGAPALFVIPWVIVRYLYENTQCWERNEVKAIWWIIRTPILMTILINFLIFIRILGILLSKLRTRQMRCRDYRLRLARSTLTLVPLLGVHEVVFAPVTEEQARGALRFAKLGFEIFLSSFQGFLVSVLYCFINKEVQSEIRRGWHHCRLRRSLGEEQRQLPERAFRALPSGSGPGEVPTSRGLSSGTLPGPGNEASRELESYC

[4] = molecular target: human glucagon receptor (human, UniProt P47871 26-477); assay: cell-based or functional assay
Sequence of human glucagon receptor (P47871 26-477): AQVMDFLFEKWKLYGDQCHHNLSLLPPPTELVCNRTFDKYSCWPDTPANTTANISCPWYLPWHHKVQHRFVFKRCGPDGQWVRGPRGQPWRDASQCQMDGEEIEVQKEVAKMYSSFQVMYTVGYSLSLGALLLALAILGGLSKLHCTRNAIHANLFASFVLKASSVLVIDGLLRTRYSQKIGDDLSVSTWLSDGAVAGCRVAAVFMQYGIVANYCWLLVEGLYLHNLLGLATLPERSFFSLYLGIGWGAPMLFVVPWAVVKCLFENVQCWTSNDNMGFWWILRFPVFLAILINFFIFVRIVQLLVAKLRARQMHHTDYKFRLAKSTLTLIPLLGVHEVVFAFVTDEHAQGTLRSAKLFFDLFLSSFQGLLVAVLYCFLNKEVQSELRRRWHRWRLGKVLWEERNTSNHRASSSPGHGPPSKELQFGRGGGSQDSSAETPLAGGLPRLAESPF

T1 sequence (P43220 24-463): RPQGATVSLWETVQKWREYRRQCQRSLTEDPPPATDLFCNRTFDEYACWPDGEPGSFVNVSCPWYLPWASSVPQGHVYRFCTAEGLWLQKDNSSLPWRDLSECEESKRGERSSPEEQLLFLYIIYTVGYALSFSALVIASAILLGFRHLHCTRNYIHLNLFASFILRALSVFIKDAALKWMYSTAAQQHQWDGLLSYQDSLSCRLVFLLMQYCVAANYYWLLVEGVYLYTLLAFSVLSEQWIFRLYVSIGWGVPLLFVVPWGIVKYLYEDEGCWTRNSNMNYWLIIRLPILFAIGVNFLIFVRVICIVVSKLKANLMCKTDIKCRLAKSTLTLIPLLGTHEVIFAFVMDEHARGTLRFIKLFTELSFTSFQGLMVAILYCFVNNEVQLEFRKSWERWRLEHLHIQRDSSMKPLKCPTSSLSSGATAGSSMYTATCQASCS

For `CC[C@H](C)[C@H](NC(=O)[C@H](CO)NC(=O)[C@H](Cc1ccc(O)cc1)NC(=O)[C@H](CC(=O)O)NC(=O)[C@H](CO)NC(=O)[C@@H](NC(=O)[C@H](Cc1ccccc1)NC(=O)[C@@H](NC(=O)CNC(=O)[C@H](CCC(N)=O)NC(=O)C(C)(C)NC(=O)[C@@H](N)Cc1ccc(O)cc1)[C@@H](C)O)[C@@H](C)O)C(=O)N[C@@H](Cc1ccc(O)cc1)C(=O)N[C@@H](CC(C)C)C(=O)N[C@@H](CCC(=O)O)C(=O)N[C@@H](CCCCN)C(=O)N[C@@H](CCC(N)=O)C(=O)N[C@@H](C)C(=O)N[C@@H](C)C(=O)NC(C)(C)C(=O)N[C@@H](CCCCNC(=O)COCCOCCNC(=O)COCCOCCNC(=O)CC[C@H](NC(=O)C1CCC(CNC(=O)CCCCCCCCCCCCCCCCCCC(=O)O)CC1)C(=O)O)C(=O)N[C@@H](Cc1ccccc1)C(=O)N[C@H](C(=O)N[C@@H](CCC(N)=O)C(=O)N[C@@H](Cc1c[nH]c2ccccc12)C(=O)N[C@@H](CC(C)C)C(=O)N[C@@H](CC(C)C)C(=O)N[C@@H](CCC(=O)O)C(=O)NCC(=O)NCC(=O)N1CCC[C@H]1C(=O)N[C@@H](CO)C(=O)N[C@@H](CO)C(=O)NCC(=O)N[C@@H](C)C(=O)N1CCC[C@H]1C(=O)N1CCC[C@H]1C(=O)N1CCC[C@H]1C(=O)N[C@@H](CO)C(N)=O)C(C)C` (stereo partly drawn) [Compound No. 11] (H-Y[Aib]QGTFTSDYSIYLEKQAA[Aib]K([AEEA-AEEA-γGlu-X1])FVQWLLEGGPSSGAPPPS-NH2; N-terminus assumed), the EC50 [1] was 4.3 pM.

`CC[C@H](C)[C@H](NC(=O)[C@H](CO)NC(=O)[C@H](Cc1ccc(O)cc1)NC(=O)[C@H](CC(=O)O)NC(=O)[C@H](CO)NC(=O)[C@@H](NC(=O)[C@H](Cc1ccccc1)NC(=O)[C@@H](NC(=O)CNC(=O)[C@H](CCC(N)=O)NC(=O)C(C)(C)NC(=O)[C@@H](N)Cc1ccc(O)cc1)[C@@H](C)O)[C@@H](C)O)C(=O)N[C@@H](Cc1ccc(O)cc1)C(=O)N[C@@H](CC(C)C)C(=O)N[C@@H](CCC(=O)O)C(=O)N[C@@H](CCCCNC(=O)[C@@H](N)CCCCNC(=O)[C@@H](N)CCCCNC(=O)CC[C@H](NC(=O)CCCCCCCCCCCCCCCCCCC(=O)O)C(=O)O)C(=O)N[C@@H](CCC(N)=O)C(=O)N[C@@H](C)C(=O)N[C@@H](C)C(=O)NC(C)(C)C(=O)N[C@@H](CCC(=O)O)C(=O)N[C@@H](Cc1ccccc1)C(=O)N[C@H](C(=O)N[C@@H](CCC(N)=O)C(=O)N[C@@H](Cc1c[nH]c2ccccc12)C(=O)N[C@@H](CC(C)C)C(=O)N[C@@H](CC(C)C)C(=O)N[C@@H](CCC(=O)O)C(=O)NCC(=O)NCC(=O)N1CCC[C@H]1C(=O)N[C@@H](CO)C(=O)N[C@@H](CO)C(=O)NCC(=O)N[C@@H](C)C(=O)N1CCC[C@H]1C(=O)N1CCC[C@H]1C(=O)N1CCC[C@H]1C(=O)N[C@@H](CO)C(N)=O)C(C)C` [Compound No. 17] (H-Y[Aib]QGTFTSDYSIYLEK([εLys-εLys-γGlu-C20 diacid])QAA[Aib]EFVQWLLEGGPSSGAPPPS-NH2) showed an EC50 [1] of 2.8 pM.

In the case of `CC[C@H](C)[C@H](NC(=O)[C@H](CO)NC(=O)[C@H](Cc1ccc(O)cc1)NC(=O)[C@H](CC(=O)O)NC(=O)[C@H](CO)NC(=O)[C@@H](NC(=O)[C@H](Cc1ccccc1)NC(=O)[C@@H](NC(=O)CNC(=O)[C@H](Cc1c[nH]cn1)NC(=O)C(C)(C)NC(=O)[C@@H](N)Cc1c[nH]cn1)[C@@H](C)O)[C@@H](C)O)C(=O)N[C@@H](Cc1ccc(O)cc1)C(=O)N[C@@H](CC(C)C)C(=O)N[C@@H](CCC(=O)O)C(=O)N[C@@H](CCCCNC(=O)[C@@H](N)CCCCNC(=O)[C@@H](N)CCCCNC(=O)CC[C@H](NC(=O)CCCCCCCCCCCCCCCCCCC(=O)O)C(=O)O)C(=O)N[C@@H](CCCNC(=N)N)C(=O)N[C@@H](C)C(=O)N[C@@H](C)C(=O)NC(C)(C)C(=O)N[C@@H](CCC(=O)O)C(=O)N[C@@H](Cc1ccccc1)C(=O)N[C@H](C(=O)N[C@@H](CCC(N)=O)C(=O)N[C@@H](Cc1c[nH]c2ccccc12)C(=O)N[C@@H](CC(C)C)C(=O)N[C@@H](CC(C)C)C(=O)N[C@@H](CCC(=O)O)C(=O)NCC(=O)NCC(=O)N1CCC[C@H]1C(=O)N[C@@H](CO)C(=O)N[C@@H](CO)C(=O)NCC(=O)N[C@@H](C)C(=O)N1CCC[C@H]1C(=O)N1CCC[C@H]1C(=O)N1CCC[C@H]1C(=O)N[C@@H](CO)C(N)=O)C(C)C` [Compound No. 37] (H-H[Aib]HGTFTSDYSIYLEK([εLys-εLys-γGlu-C20 diacid])RAA[Aib]EFVQWLLEGGPSSGAPPPS-NH2; N-terminus assumed), the EC50 [1] is reported as 1.8 pM.

B1: Compound No. 11 (peptide)
peptide: Y[Aib]QGTFTSDYSIYLEKQAA[Aib]KFVQWLLEGGPSSGAPPPS-NH2
modifications: not fully specified (residue 21)
With B1 the “hGLP-1R CRE Luc EC50 (pM)” value [2] was 4.3 pM, the “hGIPR CRE Luc EC50 (pM)” value [3] was 7.9 pM and the “hGcgR CRE Luc EC50 (pM)” value [4] was 129 pM.

B2: Compound No. 12 (peptide)
peptide: Y[Aib]QGTFTSDYSIYLEKQAA[Aib]EFVNWLLAGGPSSGAPPPS-NH2
modifications: not fully specified (residue 16); printed as Y-Aib-QGTFTSDYSIYLE-K[2-[2-[2-[[2-[2-[2-[[(4S)-4-carboxy-4-[[4-[(19-carboxynonadecanoylamino)methyl]cyclohexanecarbonyl]amino]butanoyl]amino]ethoxy]ethoxy]acetyl]amino]ethoxy]ethoxy]acetyl]-QAA-Aib-EFVNWLLAGGPSSGAPPPS-NH2
In the case of B2, the “hGLP-1R CRE Luc EC50 (pM)” value [2] is reported as 2.4 pM, the “hGIPR CRE Luc EC50 (pM)” value [3] is reported as 1.8 pM and the “hGcgR CRE Luc EC50 (pM)” value [4] is reported as 239 pM.

B3: Compound No. 13 (peptide)
peptide: Y[Aib]QGTFTSDYSIYLEKQAA[Aib]EFVNWLLAGGPSSGAPPPS-NH2
modifications: not fully specified (residue 16); printed as Y-Aib-QGTFTSDYSIYLE-K[(2S)-2-amino-6-[[(2S)-2-amino-6-[[(4S)-4-carboxy-4-[[4-[(19-carboxynonadecanoylamino)methyl]cyclohexanecarbonyl]amino]butanoyl]amino]hexanoyl]amino]hexanoyl]-QAA-Aib-EFVNWLLAGGPSSGAPPPS-NH2
In the case of B3, the “hGLP-1R CRE Luc EC50 (pM)” value [2] is reported as 2.8 pM, the “hGIPR CRE Luc EC50 (pM)” value [3] is reported as 2.1 pM and the “hGcgR CRE Luc EC50 (pM)” value [4] is reported as 157 pM.

B4: Compound No. 14 (peptide)
peptide: Y[Aib]QGTFTSDYSIYLEKQAA[Aib]EFVQWLLEGGPSSGAPPPS-NH2
modifications: not fully specified (residue 16); printed as Y-Aib-QGTFTSDYSIYLE-K[2-[2-[2-[[2-[2-[2-[[(4S)-4-carboxy-4-[[4-[(19-carboxynonadecanoylamino)methyl]cyclohexanecarbonyl]amino]butanoyl]amino]ethoxy]ethoxy]acetyl]amino]ethoxy]ethoxy]acetyl]-QAA-Aib-EFVQWLLEGGPSSGAPPPS-NH2
B4 was tested, and the “hGLP-1R CRE Luc EC50 (pM)” value [2] was 4.3 pM, the “hGIPR CRE Luc EC50 (pM)” value [3] was 4.2 pM and the “hGcgR CRE Luc EC50 (pM)” value [4] was 287 pM.

B5: Compound No. 15 (peptide)
peptide: Y[Aib]QGTFTSDYSIYLEKQAA[Aib]EFVNWLLAGGPSSGAPPPS-NH2
modifications: not fully specified (residue 16); printed as Y-Aib-QGTFTSDYSIYLE-K[2-[2-[2-[[2-[2-[2-[[(4S)-4-carboxy-4-(19-carboxynonadecanoylamino)butanoyl]amino]ethoxy]ethoxy]acetyl]amino]ethoxy]ethoxy]acetyl]-QAA-Aib-EFVNWLLAGGPSSGAPPPS-NH2
For B5, the “hGLP-1R CRE Luc EC50 (pM)” value [2] was 1.4 pM, the “hGIPR CRE Luc EC50 (pM)” value [3] was 4.8 pM and the “hGcgR CRE Luc EC50 (pM)” value [4] was 267 pM.

B6: Compound No. 16 (peptide)
peptide: Y[Aib]QGTFTSDYSIYLEKQAA[Aib]EFVQWLLEGGPSSGAPPPS-NH2
modifications: not fully specified (residue 16); printed as Y-Aib-QGTFTSDYSIYLE-K[2-[2-[2-[[2-[2-[2-[[(4S)-4-carboxy-4-(19-carboxynonadecanoylamino)butanoyl]amino]ethoxy]ethoxy]acetyl]amino]ethoxy]ethoxy]acetyl]-QAA-Aib-EFVQWLLEGGPSSGAPPPS-NH2
In the case of B6, the “hGLP-1R CRE Luc EC50 (pM)” value [2] is reported as 3.1 pM, the “hGIPR CRE Luc EC50 (pM)” value [3] is reported as 11.4 pM and the “hGcgR CRE Luc EC50 (pM)” value [4] is reported as 185 pM.

B7: Compound No. 17 (peptide)
peptide: Y[Aib]QGTFTSDYSIYLEKQAA[Aib]EFVQWLLEGGPSSGAPPPS-NH2
modifications: not fully specified (residue 16)
With B7 the “hGLP-1R CRE Luc EC50 (pM)” value [2] was 2.8 pM, the “hGIPR CRE Luc EC50 (pM)” value [3] was 7 pM and the “hGcgR CRE Luc EC50 (pM)” value [4] was 86.6 pM.

B8: Compound No. 18 (peptide)
peptide: Y[Aib]HGTFTSDYSIYLEKQAA[Aib]EFVQWLLEGGPSSGAPPPS-NH2
modifications: not fully specified (residue 16); printed as Y-Aib-HGTFTSDYSIYLE-K[(2S)-2-amino-6-[[(2S)-2-amino-6-[[(4S)-4-carboxy-4-(19-carboxynonadecanoylamino)butanoyl]amino]hexanoyl]amino]hexanoyl]-QAA-Aib-EFVQWLLEGGPSSGAPPPS-NH2
With B8 the “hGLP-1R CRE Luc EC50 (pM)” value [2] was 106 pM, the “hGIPR CRE Luc EC50 (pM)” value [3] was 7.1 pM and the “hGcgR CRE Luc EC50 (pM)” value [4] was 72.1 pM.

— US20230391845A1, “GLP-1, GIP AND GLUCAGON RECEPTOR TRIPLE AGONISTS” (priority 2020, published 2023)
